Changes are numbered by the printed parent chain. Numbers in names are those of the source. Some results are limits rather than exact numbers.

B1: H7.5 Fab H-M73R (Fab, V domains shown)
VH: QVQLVQSGAEVKKPGASVKVSCKASGYTLTRYYFHWVRQAPGQGFEWMGIINPNGGGTSYAQKFGDRVIMTSDRSTSTIYMELSSLRSEDTAVYYCARDMPYYHDSGGPLFDLWGQGTLVTVSS
VL: EIVMTQSPSSLSASVGDRVTITCRPSQSISTFLNWYEQKPGKAPKLLIYDASSLQSGVPSRFSGSGSGTEFTLTISSLQPEDFATYYCQQSFSTPYTFGQGTRLEIK
B2: H7.5 Fab H-S74K (Fab, V domains shown)
VH: B1 VH with R74M, S75K
VL: B1 VL
B3: H7.5 Fab L-T94Q (Fab, V domains shown)
VH: B1 VH with R74M
VL: B1 VL with T94Q
B4: H7.5 Fab H-S58W (Fab, V domains shown)
VH: B1 VH with S59W, R74M
VL: B1 VL
B5: H7.5 Fab H-T57A (Fab, V domains shown)
VH: B1 VH with T58A, R74M
VL: B1 VL
B6: H7.5 Fab L-Y96A (Fab, V domains shown)
VH: B1 VH with R74M
VL: B1 VL with Y96A

The test addresses H7 Sh2 HA (A/Shanghai/2/2013), ectodomain trimer, cleavage state not stated (influenza A virus (A/Shanghai/2/2013)). In words: BLI. Background: BLI is a label-free optical method that tracks binding on a fibre tip over time.
B1 had a Kd of under 0.1 nM.

Take B2: the equilibrium dissociation constant (Kd) was under 0.1 nM.

Consider B3, for which the dissociation constant (Kd) is over 1000 nM.

With B4, the equilibrium dissociation constant (Kd) is over 1000 nM.

Consider B5, for which the dissociation constant Kd came to 116 nM.

B6 gave a Kd of 549 nM. This Kd is about 4.7-fold higher than that of the molecule before.

In general, Kd refers to the concentration at which binding is half-saturated.
